Reference: patent US20230140293A1

Legend:
Assay in all cases: cell-based or functional assay
[1] = target: HIV-1 Env 426c.TM4 (S278R.G471S.N460D.N463D), Env-pseudotyped virus produced in 293S GnTI- cells (Man5-enriched) (HIV-1 clade C strain 426c)
[2] = target: CH0505TF.gly3.197 Env, Env-pseudotyped virus produced in 293T cells (HIV-1)
[3] = target: HIV-1 426c.DM (N460D/N463D) Env on Env-pseudotyped virus produced in 293s/GnTI-/- cells (Man5-enrichment) (HIV-1)
[4] = target: HIV-1 Env 426c.TM (N276D.N460D.N463D), Env-pseudotyped virus produced in 293S GnTI- cells (Man5-enriched) (HIV-1 clade C strain 426c)
[5] = target: CH0505TF.gly4 Env, Env-pseudotyped virus produced in 293S GnTI- cells (Man5-enriched) (HIV-1)
[6] = target: CH0505TF Env, Env-pseudotyped virus produced in 293S GnTI- cells (Man5-enriched) (HIV-1)
[7] = target: HIV-1 426c.DM (N460D/N463D) Env on Env-pseudotyped virus produced in 293T cells (HIV-1)
[8] = target: HIV-1 Env 426c.DM (N460D.N463D), Env-pseudotyped virus produced in 293T cells (HIV-1 clade C strain 426c)
[9] = target: HIV-1 clade C strain 426c Env on Env-pseudotyped virus produced in 293T cells (HIV-1)
[10] = target: HIV-1 Env 426c, Env-pseudotyped virus produced in 293T cells (HIV-1 clade C strain 426c)
[11] = target: HIV-1 Env 426c.DM (N460D.N463D), Env-pseudotyped virus produced in 293S GnTI- cells (Man5-enriched) (HIV-1 clade C strain 426c)
[12] = target: CH0505TF.gly3.276 Env, Env-pseudotyped virus produced in 293T cells (HIV-1)
[13] = target: CH0505TF.G458Y Env, Env-pseudotyped virus produced in 293T cells (HIV-1)
[14] = target: HIV-1 Env 426c.SM (N276D), Env-pseudotyped virus produced in 293S GnTI- cells (Man5-enriched) (HIV-1 clade C strain 426c)
[15] = target: HIV-1 clade C strain 426c Env on Env-pseudotyped virus produced in 293s/GnTI-/- cells (Man5-enrichment) (HIV-1)
[16] = target: HIV-1 426c.TM (N276D/N460D/N463D) Env on Env-pseudotyped virus produced in 293T cells (HIV-1)
[17] = target: HIV-1 Env 426c.TM4 (S278R.G471S.N460D.N463D), Env-pseudotyped virus produced in 293T cells (HIV-1 clade C strain 426c)
[18] = target: HIV-1 426c.SM (N276D) Env on Env-pseudotyped virus produced in 293T cells (HIV-1)
[19] = target: CH0505TF.gly3.276 Env, Env-pseudotyped virus produced in 293S GnTI- cells (Man5-enriched) (HIV-1)
[20] = target: CH0505TF.gly3.197 Env, Env-pseudotyped virus produced in 293S GnTI- cells (Man5-enriched) (HIV-1)
[21] = target: CH0505.w4.3 Env, Env-pseudotyped virus produced in 293T cells (HIV-1)
[22] = target: HIV-1 426c.SM (N276D) Env on Env-pseudotyped virus produced in 293s/GnTI-/- cells (Man5-enrichment) (HIV-1)
[23] = target: CH0505TF.gly3.461 Env, Env-pseudotyped virus produced in 293S GnTI- cells (Man5-enriched) (HIV-1)
[24] = target: CH0505TF Env, Env-pseudotyped virus produced in 293T cells (HIV-1)
[25] = target: HIV-1 Env 426c.TM (N276D.N460D.N463D), Env-pseudotyped virus produced in 293T cells (HIV-1 clade C strain 426c)
[26] = target: HIV-1 Env 426c.SM (N276D), Env-pseudotyped virus produced in 293T cells (HIV-1 clade C strain 426c)
[27] = target: CH0505TF.gly4 Env, Env-pseudotyped virus produced in 293T cells (HIV-1)
[28] = target: CH0505TF.gly3.461 Env, Env-pseudotyped virus produced in 293T cells (HIV-1)
[29] = target: HIV-1 426c.TM (N276D/N460D/N463D) Env on Env-pseudotyped virus produced in 293s/GnTI-/- cells (Man5-enrichment) (HIV-1)
[30] = target: CH0505TF.G458Y Env, Env-pseudotyped virus produced in 293S GnTI- cells (Man5-enriched) (HIV-1)
[31] = target: HIV-1 Env 426c, Env-pseudotyped virus produced in 293S GnTI- cells (Man5-enriched) (HIV-1 clade C strain 426c)

Substance | IC50 (µg/ml) in TZM-bl [1] | IC50 (µg/ml) in TZM-bl [2] | ID50/IC50 in TZM-bl [3] | IC50 (µg/ml) in TZM-bl [4] | IC50 (µg/ml) in TZM-bl [5] | IC50 (µg/ml) in TZM-bl [6] | ID50/IC50 in TZM-bl [7] | IC50 (µg/ml) in TZM-bl [8] | ID50/IC50 in TZM-bl [9] | IC50 (µg/ml) in TZM-bl [10] | IC50 (µg/ml) in TZM-bl [11] | IC50 (µg/ml) in TZM-bl [12] | IC50 (µg/ml) in TZM-bl [13] | IC50 (µg/ml) in TZM-bl [14] | ID50/IC50 in TZM-bl [15] | ID50/IC50 in TZM-bl [16] | IC50 (µg/ml) in TZM-bl [17] | ID50/IC50 in TZM-bl [18] | IC50 (µg/ml) in TZM-bl [19] | IC50 (µg/ml) in TZM-bl [20] | also measured
2F5 (antibody) | > 25 µg/mL | > 25 µg/mL | > 25 µg/mL | > 25 µg/mL | > 25 µg/mL | > 25 µg/mL | > 25 µg/mL | > 25 µg/mL | > 25 µg/mL | > 25 µg/mL | > 25 µg/mL | > 25 µg/mL | > 25 µg/mL | > 25 µg/mL | > 25 µg/mL | > 25 µg/mL | > 25 µg/mL | > 25 µg/mL | > 25 µg/mL | > 25 µg/mL | IC50 (µg/ml) in TZM-bl [21]: > 25 µg/mL; ID50/IC50 in TZM-bl [22]: > 25 µg/mL; IC50 (µg/ml) in TZM-bl [23]: > 25 µg/mL; IC50 (µg/ml) in TZM-bl [24]: > 25 µg/mL; IC50 (µg/ml) in TZM-bl [25]: > 25 µg/mL; IC50 (µg/ml) in TZM-bl [26]: > 25 µg/mL; IC50 (µg/ml) in TZM-bl [27]: > 25 µg/mL; IC50 (µg/ml) in TZM-bl [28]: > 25 µg/mL; ID50/IC50 in TZM-bl [29]: > 25 µg/mL; IC50 (µg/ml) in TZM-bl [30]: > 25 µg/mL; IC50 (µg/ml) in TZM-bl [31]: > 25 µg/mL
PGT121 (antibody) | > 5 µg/mL | > 5 µg/mL | 3.4 µg/mL | 3.4 µg/mL | > 5 µg/mL | > 5 µg/mL | > 5 µg/mL | > 5 µg/mL | > 5 µg/mL | > 5 µg/mL | 3.4 µg/mL | > 5 µg/mL | > 5 µg/mL | 4.2 µg/mL | 2.5 µg/mL | > 5 µg/mL | > 5 µg/mL | > 5 µg/mL | > 5 µg/mL | > 5 µg/mL | IC50 (µg/ml) in TZM-bl [21]: > 20 µg/mL; ID50/IC50 in TZM-bl [22]: 4.2 µg/mL; IC50 (µg/ml) in TZM-bl [23]: > 5 µg/mL; IC50 (µg/ml) in TZM-bl [24]: > 5 µg/mL; IC50 (µg/ml) in TZM-bl [25]: > 5 µg/mL; IC50 (µg/ml) in TZM-bl [26]: > 5 µg/mL; IC50 (µg/ml) in TZM-bl [27]: > 5 µg/mL; IC50 (µg/ml) in TZM-bl [28]: > 5 µg/mL; ID50/IC50 in TZM-bl [29]: 3.4 µg/mL; IC50 (µg/ml) in TZM-bl [30]: > 5 µg/mL; IC50 (µg/ml) in TZM-bl [31]: 2.5 µg/mL
HJ16 (antibody) | > 25 µg/mL | > 25 µg/mL | > 25 µg/mL | > 25 µg/mL | > 25 µg/mL | > 25 µg/mL | > 25 µg/mL | > 25 µg/mL | > 25 µg/mL | > 25 µg/mL | > 25 µg/mL | > 25 µg/mL | > 25 µg/mL | > 25 µg/mL | > 25 µg/mL | > 25 µg/mL | > 25 µg/mL | > 25 µg/mL | > 25 µg/mL | > 25 µg/mL | IC50 (µg/ml) in TZM-bl [21]: > 25 µg/mL; ID50/IC50 in TZM-bl [22]: > 25 µg/mL; IC50 (µg/ml) in TZM-bl [23]: > 25 µg/mL; IC50 (µg/ml) in TZM-bl [24]: > 25 µg/mL; IC50 (µg/ml) in TZM-bl [25]: > 25 µg/mL; IC50 (µg/ml) in TZM-bl [26]: > 25 µg/mL; IC50 (µg/ml) in TZM-bl [27]: > 25 µg/mL; IC50 (µg/ml) in TZM-bl [28]: > 25 µg/mL; ID50/IC50 in TZM-bl [29]: > 25 µg/mL; IC50 (µg/ml) in TZM-bl [30]: > 25 µg/mL; IC50 (µg/ml) in TZM-bl [31]: > 25 µg/mL
PGT128 (antibody) | > 5 µg/mL | > 5 µg/mL | > 5 µg/mL | > 5 µg/mL | > 5 µg/mL | > 5 µg/mL | > 5 µg/mL | > 5 µg/mL | > 5 µg/mL | > 5 µg/mL | > 5 µg/mL | > 5 µg/mL | > 5 µg/mL | > 5 µg/mL | 4.3 µg/mL | > 5 µg/mL | > 5 µg/mL | > 5 µg/mL | > 5 µg/mL | > 5 µg/mL | IC50 (µg/ml) in TZM-bl [21]: > 10 µg/mL; ID50/IC50 in TZM-bl [22]: > 5 µg/mL; IC50 (µg/ml) in TZM-bl [23]: > 5 µg/mL; IC50 (µg/ml) in TZM-bl [24]: > 5 µg/mL; IC50 (µg/ml) in TZM-bl [25]: > 5 µg/mL; IC50 (µg/ml) in TZM-bl [26]: > 5 µg/mL; IC50 (µg/ml) in TZM-bl [27]: > 5 µg/mL; IC50 (µg/ml) in TZM-bl [28]: > 5 µg/mL; ID50/IC50 in TZM-bl [29]: > 5 µg/mL; IC50 (µg/ml) in TZM-bl [30]: > 5 µg/mL; IC50 (µg/ml) in TZM-bl [31]: 4.3 µg/mL
